Target: CL11 (ribosomal protein L11 C-terminal domain, wild type) (Bacillus stearothermophilus, UniProt P56210 59-133)
Test: SPR

Chain of CL11 (ribosomal protein L11 C-terminal domain, wild type) (P56210 59-133): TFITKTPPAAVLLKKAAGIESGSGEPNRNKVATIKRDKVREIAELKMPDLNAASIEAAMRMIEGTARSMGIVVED

B1: biotinylated 58rRNA (structured_RNA)
RNA: GCCAGGAUGUAGGCUUAGAAGCAGCCAUCAUUUAAAGAAAGCGUAAUAGCUCACUGGU
- Kd: 2.4 nM

— paper doi:10.1101/2021.08.01.454623
